For four molecules, A450nm, 20 nM mAb results are on record in US20220396632A1.

The labels stand for the following.
B1: 09D11 (antibody, IgG4, V domains shown)
VH: QVQLVESGGGFIQPGGSLRLSCAASGLTFSNYAMTWVRQAPGKGLEWVSTISGGGGNTYYTDSVKGRFTISRDNSKNTLYLQMNSLKAEDTAVYRCAKGLAAALFDYWGQGTLVTVSS
VL: DIVLTQSPDSLPVTPGEPASISCRSSRSLLHSNGHNFLAWYLQKPGQSPHLLIYLGSNRASGVPDRFSGSGSGTDFTLKISRVEAEDVGIYYCMQALQTPITFGQGTRLDIK
B2: 09B09 (antibody, IgG4, V domains shown)
VH: EVKLLESGGGLVQPGGSLRLSCAASGITFSTYAMMWVRQAPGKGLEWVSGISGSGASRYYADSVKGRFTISRDNSKNMLYLQMNSLRAEDTAVYYCAKKVLGRRKQYFDDWGQGTLVTVSS
VL: DIVMTQSPLSLPVTPGEPASISCRSSQSLLHSNGYNYLDWYLQRPGQSPQLLIYLGSHRASGVPDRFSGSGSGTEHTLKITTVAAEDVGVYYCMQALQSPPTFGQGTRLDIK
B3: 01A04 (antibody, IgG4, V domains shown)
VH: EVQLVQSGAEVKKPGASVKVSCKASGYTFTSYYIHWVRQAPGQGLEWMGIIRPSGGSTSYAQKFQGRVTMTRDTSTSTVYMELSSLRSEDTAMYYCARVGVGSFDYWGQGTLVTVSS
VL: DIQMTQSPSTLSASVGDRVTITCRASQSVSNWLAWYQQKPGKAPKLLIYKASSLESGVPSRFSGSGSGTEFTLTISSLQPDDFATYYCQWFRTFGPGTKVDIK
B4: 03D01 (antibody, IgG4, V domains shown)
VH: EVQLVQSGGGLVQPGGSLRLSCAATGFTVSRNYMTWVREAPGKGLEWVAGIYKSGTTSYIESVKGRFTISRDNSKNTLYLEMSRLRAEDTAVYYCAKSTSTWGQGTQVTVSS
VL: DVVMTQSPVSLPVTLGQPASISCRSSRNLLYSNGNTYLNWFHQRPGQSPRRLIYKVSNQDSGVPDRFSGSGSGTDFTLKISRVEAEDVGVYYCMQGTHWPTTFGQGTRLEIK

This test deals with T1, Scrambled Y42,52,63(SO3) PSGL-1(42-62) biotin peptide.
T1 sequence (peptide, sulfotyrosine at peptide positions 1, 11 and 22; C-terminal Lys-biotin): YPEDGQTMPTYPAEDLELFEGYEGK
As to the kind of experiment: ELISA, immobilized biotin peptide. In general terms: ELISA stands for enzyme-linked immunosorbent assay.
B1 gave an A450nm, 20 nM mAb of 0.09 A450nm.

With B2, the A450nm, 20 nM mAb was 0.37 A450nm.

B3 displayed an A450nm, 20 nM mAb of 0.13 A450nm.

With B4, the A450nm, 20 nM mAb is 0.12 A450nm.
